The results in this text go back to patent US9605283B2, “Microorganism modified for the production of 1,3-propanediol” (INSTITUT NATIONAL DES SCIENCES APPLIQUÉES, priority 2012, dated 2017).

Substrate in series [1]: CC(=O)C(=O)O
The experiment in a line: OHB decarboxylase / pyruvate decarboxylase kinetics, Zm-Pdc W392Q. The series is classed as biochemical, Zymomonas mobilis. Conditions: other: 37° C., pH 7, coupled to yeast alcohol dehydrogenase/NADH. The method, then:
(§1) OHB decarboxylase activity was assayed by coupling the decarboxylase activity to the NADPH-dependent reduction of the released 3-hydroxypropanal by purified aldehyde reductase, YqhD, from E. coli. The decarboxylation of pyruvate was coupled to the NADH-dependent reduction of acetaldehyde catalysed by yeast alcohol dehydrogenase. Branched-chain alpha-ketoacid decarboxylase activity was measured on 4-methyl-2-oxovaleric acid by coupling to the NADH-dependent reduction of 3-methylbutanal catalysed by horse liver alcohol dehydrogenase. […] Reactions were started by adding 20 mM 2-oxo-4-hydroxybutyrate (OHB), 10 mM 4-methyl-2-oxovaleric acid (MOV), or 5 mM pyruvate.
(§2) Site-directed mutagenesis of the L. lactis kdcA and the Z. mobilis Pdc genes was carried out using the oligonucleotide pairs listed in Table 9 and the pET28-Ll-kdcA and pET28-Zm-Pdc plasmids, respectively, as the template.
(§3) Mutant enzymes were expressed, purified and tested for OHB decarboxylase, pyruvate decarboxylase and MOV decarboxylase activity as described in Example 4.

Substrate in series [2]: O=C(O)C(=O)CCO
Described as above. Particulars: other: 37° C., pH 7, coupled to E. coli YqhD/NADPH. The series is classed as biochemical, Zymomonas mobilis. The method, then:
as §1, §2, §3

B1: Zymomonas mobilis pyruvate decarboxylase Zm-Pdc variant W392Q, SEQ ID No. 190 (Zymomonas mobilis subsp. mobilis ZM4 = ATCC 31821; W392Q) (protein)
chain: MSYTVGTYLAERLVQIGLKHHFAVAGDYNLVLLDNLLLNKNMEQVYCCNELNCGFSAEGYARAKGAAAAVVTYSVGALSAFDAIGGAYAENLPVILISGAPNNNDHAAGHVLHHALGKTDYHYQLEMAKNITAAAEAIYTPEEAPAKIDHVIKTALREKKPVYLEIACNIASMPCAAPGPASALFNDEASDEASLNAAVEETLKFIANRDKVAVLVGSKLRAAGAEEAAVKFADALGGAVATMAAAKSFFPEENPHYIGTSWGEVSYPGVEKTMKEADAVIALAPVFNDYSTTGWTDIPDPKKLVLAEPRSVVVNGIRFPSVHLKDYLTRLAQKVSKKTGALDFFKSLNAGELKKAAPADPSAPLVNAEIARQVEALLTPNTTVIAETGDSQFNAQRMKLPNGARVEYEMQWGHIGWSVPAAFGYAVGAPERRNILMVGDGSFQLTAQEVAQMVRLKLPVIIFLINNYGYTIEVMIHDGPYNNIKNWDYAGLMEVFNGNGGYDSGAGKGLKAKTGGELAEAIKVALANTDGPTLIECFIGREDCTEELVKWGKRVAAANSRKPVNKLL
As for B1, the Michaelis constant (Km) is given as 9.2 mM in series [1] and 2.9 mM in series [2].
